Data reported in the supplement of paper PMC10567573.

B1: INTS3 (parent)
chain: KKREFRFHPIKETVVEEPVDITPY
B2: KCNK9 (parent)
chain: DVPDLQSVCSCTCYRSQDYGGRSV

Variants of: B1
Test: protein stability index of a GFP-peptide fusion (GPS, HEK-293T) (PSI 1-6); higher = more stable
Details: c terminus: a fixed tail appended
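Further: lentivirally expressed fusions sorted by FACS into six bins by GFP to DsRed ratio, PSI derived from sequencing read proportions per bin multiplied by bin number.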

Protein stability index, by site and new letter:
H8: W 3.41 | M 3.79 | N 3.96 | G 3.93 | I 2.8 | D 4.47 | K 4.01 | Q 3.45 | L 3.97 | R 4.07 | Y 3.43 | P 4.58 | F 3.49 | S 3.54 | E 3.55 | V 2.49 | T 3.34 | A 3.27 | C 3.25
I10: T 2.27 | R 1.41 | M 1.87 | Y 4.54 | D 2.28 | F 2.69 | G 2.3 | K 2.02 | A 2.08 | H 2.09 | E 2.4 | S 1.64 | V 1.98 | Q 1.83 | W 3.25 | L 1.75 | P 1.9 | C 1.51 | N 2.84
E4: G 1.54 | H 1.9 | R 2.86 | K 2.79 | L 1.79 | D 2.06 | M 2.04 | I 2.05 | Q 2.36 | S 1.33 | N 1.48 | C 3.03 | P 2.62 | A 2.29 | Y 1.81 | V 1.27 | F 1.94 | W 1.41 | T 2.07
F5: G 4.34 | P 4.18 | Q 4.37 | V 4.63 | L 4.01 | I 4.06 | H 4.36 | A 4.36 | W 2.56 | T 4.52 | S 4.45 | D 4.4 | M 4.36 | E 4.8 | K 4.75 | Y 3.92 | R 4.56 | C 4.39 | N 4.53
K1: G 1.69 | E 2.27 | F 2.04 | R 1.84 | I 1.65 | Q 1.97 | Y 2.12 | T 2.01 | S 1.8 | H 1.73 | P 1.66 | L 2.25 | A 2.29 | N 1.94 | M 1.96 | V 2.74 | W 2.1 | D 2.01 | C 1.81
K11: M 2.64 | P 2.33 | D 2.72 | C 2.15 | E 2.5 | H 2.04 | A 1.82 | G 2.04 | F 2.56 | N 1.71 | I 1.85 | L 2.72
R6: N 4.25 | G 4.57 | H 4.52 | D 4.24 | C 3.87 | A 3.97 | W 2.55 | I 4.01 | L 4.15 | S 4.31 | V 3.49 | Q 4.23 | K 4.23 | T 4.38 | Y 3.66 | P 4.38 | M 4.02 | F 2.57 | E 4.48
F7: Y 2.84 | M 4.4 | R 4.6 | V 4.65 | N 4.91 | K 4.39 | S 4.74 | I 4.23 | G 4.71 | A 4.76 | Q 4.24 | W 3.25 | T 4.79 | E 4.62 | C 4.26 | L 4.21 | H 4.63 | D 4.43 | P 4.58
K2: P 2.5 | W 2.03 | D 2.53 | H 1.67 | S 2.38 | A 1.56 | C 1.9 | N 1.82 | L 1.83 | V 1.37 | E 2.55 | Q 2.17 | Y 1.6 | T 2.14 | F 2.08 | M 2.2 | G 2.11 | I 2.55 | R 2.29
P9: N 3.02 | T 2.42 | I 2.18 | G 2.5 | W 1.81 | L 1.9 | E 3.18 | Q 2.17 | R 2.3 | K 2.59 | D 3.8 | C 2.03 | F 2.17 | S 2.04 | A 2.5 | H 2.83 | M 2.17 | Y 1.99 | V 2.63
R3: M 1.43 | Q 1.89 | Y 2.25 | I 2.25 | N 1.76 | G 1.72 | A 1.82 | T 1.73 | F 1.62 | W 1.44 | C 2.35 | V 1.92 | H 2.14 | P 1.66 | L 1.61 | K 2.46 | E 2.74 | S 1.66 | D 2.84

Variants of: B2
Test: as above
Details: c terminus: a fixed tail appended

Protein stability index, by site and new letter:
C9: M 2.06 | D 3.26 | Y 1.82 | P 1.67
V8: Y 1.86 | G 3.36 | L 1.59 | A 2.8 | K 1.68
S7: V 1.56 | M 1.84 | I 2.29 | C 1.66 | N 1.38 | R 1.57 | H 1.92 | P 1.46
Q17: H 2.14 | F 1.95 | R 2.58 | C 2.31 | M 2.76
R22: P 2.16 | K 3.06 | L 3.27 | Y 1.47 | N 2.6
Q6: K 1.98 | C 2.56 | M 2.61 | R 2.73 | A 1.65
D1: H 3.67 | C 1.04 | R 1.62 | L 2.59 | E 1.44 | A 1.54
G21: Y 2.08 | V 2.16
R15: T 2.2 | F 1.78 | W 2.21 | C 2.17 | V 1.28 | L 1.49 | Q 1.68 | G 2.23
S10: K 1.76 | Q 2.25 | Y 1.92 | A 1.66 | N 1.47 | R 1.33 | F 1.26 | H 1.43 | E 2.16
D4: C 1.64 | L 1.75 | G 1.45 | Y 2.86 | M 2.28 | T 2.48
P3: I 2.22 | N 1.45 | C 2.14 | Y 1.4
S16: C 2.5 | R 1.65 | F 2.78 | L 2.87
T12: A 1.78 | S 1.31 | G 1.52 | P 2.05 | F 2.76 | L 1.3
Y19: N 1.71 | K 2.1 | E 2.02 | G 1.58 | H 2.27 | S 1.81
V24: H 1.64 | Q 1.72 | K 1.45 | D 2.69 | P 2.35 | T 2.73 | L 2.44 | S 1.68
L5: A 1.63 | P 2.64 | V 2.4 | N 2.19 | Y 1.71 | I 2.54 | F 2.15
C11: R 2.34 | W 2.59 | Y 3.6 | H 2.02
C13: G 3.14 | S 2.79 | I 2.85 | W 1.75 | F 1.14
V2: F 1.69 | T 2.57 | G 1.5 | M 2.31 | W 1.68 | I 1.78 | E 2.93
G20: E 1.97 | T 1.87 | F 1.35 | A 2.24
S23: W 2.53 | C 1.98 | G 2.96 | L 2.27 | A 1.8
D18: E 1.21 | L 1.73 | W 1.61
Y14: K 2.27 | T 1.5 | S 2.29 | I 1.83 | L 1.47 | M 3.61
